Laboratory results published in PMC10676424, “VirB, a transcriptional activator of virulence in Shigella flexneri, uses CTP as a cofactor” (Communications Biology, 2023).

Key:
Sfl VirB = target: T1, Sfl VirB (Shigella flexneri, UniProt P0A247); assay: isothermal titration calorimetry; assay type: binding
T1 construct: full length, N-terminal GFP tag removed with HRV-3C protease, made in E. coli BL21-Gold (DE3), dimer; gene on invasion plasmid pINV

[1] = target: the molecule itself; assay: cross-linking; plasmid entrapment assay: 2 uM VirB, 250 uM CTP, 50 nM plasmid DNA, 1 mM BMOE, room temperature; low stringency buffer (150 mM NaCl, 50 mM Tris-HCl pH 7.5, 5 mM MgCl2) or high stringency buffer (25 mM HEPES/NaOH pH 7.5, 500 mM NaCl, 5 mM MgCl2, 1 mM DTT, 10 uM BSA, 0.01% Tween 20); SDS-PAGE and agarose gel
[2] = target: the molecule itself; assay: cross-linking; site-specific cysteine cross-linking with 1 mM BMOE; 10 uM protein, with or without 1 mM CTP and 1 uM 40-bp DNA; 150 mM NaCl (also 500/1000 mM), 50 mM Tris-HCl pH 7.5, 5 mM MgCl2; room temperature (25 °C); SDS-PAGE, Coomassie, band quantification

Molecule: Nc1ccn([C@@H]2O[C@H](COP(=O)(O)OP(=O)(O)OP(=O)(O)O)[C@@H](O)[C@H]2O)c(=O)n1 [CTP]
- Kd (Sfl VirB): ~1000 nM

B1: VirB(C5S, Q15C, A297C) (natural protein)
chain: MVDLSNDLLSIKEGCKKEFTLHSGNKVSFIKAKIPHKRIQDLTFVNQKTNVRDQESLTEESLADIIKTIKLQQFFPVIGREIDGRIEILDGTRRRASAIYAGADLEVLYSKEYISTLDARKLANDIQTAKEHSIRELGIGLNFLKVSGMSYKDIAKKENLSRAKVTRAFQAASVPQEIISLFPIASELNFNDYKILFNYYKGLEKANESLSSTLPILKEEIKDLDTNLPPDIYKKEILNIIKKSKNRKQNPSLKVDSLFISKDKRTYIKRKENKTNRTLIFTLSKINKTVQREIDECIRDIISRHLSSS
notes: not shown: GFP, N-terminal, cleaved
- stoichiometry N [1]: 2

B2: VirB(C5S, I30C) (natural protein)
chain: MVDLSNDLLSIKEGQKKEFTLHSGNKVSFCKAKIPHKRIQDLTFVNQKTNVRDQESLTEESLADIIKTIKLQQFFPVIGREIDGRIEILDGTRRRASAIYAGADLEVLYSKEYISTLDARKLANDIQTAKEHSIRELGIGLNFLKVSGMSYKDIAKKENLSRAKVTRAFQAASVPQEIISLFPIASELNFNDYKILFNYYKGLEKANESLSSTLPILKEEIKDLDTNLPPDIYKKEILNIIKKSKNRKQNPSLKVDSLFISKDKRTYIKRKENKTNRTLIFTLSKINKTVQREIDEAIRDIISRHLSSS
notes: also called engineered C5S, I30C; not shown: GFP, N-terminal, cleaved
- binding result [2]: binds

B3: VirB (natural protein)
chain: MVDLCNDLLSIKEGQKKEFTLHSGNKVSFIKAKIPHKRIQDLTFVNQKTNVRDQESLTEESLADIIKTIKLQQFFPVIGREIDGRIEILDGTRRRASAIYAGADLEVLYSKEYISTLDARKLANDIQTAKEHSIRELGIGLNFLKVSGMSYKDIAKKENLSRAKVTRAFQAASVPQEIISLFPIASELNFNDYKILFNYYKGLEKANESLSSTLPILKEEIKDLDTNLPPDIYKKEILNIIKKSKNRKQNPSLKVDSLFISKDKRTYIKRKENKTNRTLIFTLSKINKTVQREIDEAIRDIISRHLSSS
notes: as for B1
- binding result [2]: binds
